Results from PMC11479946, “Coupling enzymatic activity and gating in an ancient TRPM chanzyme and its molecular evolution” (Nature Structural & Molecular Biology, 2024).
Values belong to the molecule of their own block, whether it stands above or below them.

Legend:
[1] = target: srTRPM2–ΔNUDT9-H (Salpingoeca rosetta) (UniProt F2UB89); assay: cryo-EM structure; purified protein with EDTA (1 mM), CaCl2 (1 mM), MgCl2 (10 mM) or EDTA–ADPR (1:1 mM), 30 min; apo or partially ligand-bound states; C4 symmetry; NUDT9-H domains flexible, not tetramerised
[2] = target: srTRPM2–ΔNUDT9-H (Salpingoeca rosetta) (UniProt F2UB89); assay: cryo-EM structure; purified protein in GDN or nanodisc with CaCl2–ADPR (1:1 mM), MgCl2–AMP–R5P (10:1:1 mM) or MgCl2–ADPR (10:1 mM; 5 s, 10 s or 4 min); fully ligand-bound states; NUDT9-H layer tetramerised via the buckle helix
[3] = target: srTRPM2–E1114A (Salpingoeca rosetta); assay: as above
[4] = target: Salpingoeca rosetta TRPM2 chanzyme, wild type, full length (Salpingoeca rosetta); assay: cryo-EM structure; purified protein with EDTA (1 mM), CaCl2 (1 mM), MgCl2 (10 mM) or EDTA–ADPR (1:1 mM), 30 min; apo or partially ligand-bound states; C4 symmetry; NUDT9-H domains flexible, not tetramerised
[5] = target: Salpingoeca rosetta TRPM2 chanzyme, wild type, full length (Salpingoeca rosetta); assay: cryo-EM structure; purified protein in GDN or nanodisc with CaCl2–ADPR (1:1 mM), MgCl2–AMP–R5P (10:1:1 mM) or MgCl2–ADPR (10:1 mM; 5 s, 10 s or 4 min); fully ligand-bound states; NUDT9-H layer tetramerised via the buckle helix
[6] = target: T1, srTRPM2 (Salpingoeca rosetta, UniProt F2UB89, R275A); assay: inside-out patch clamp, tsA201 cells, +[…] mV; type: biochemical; conditions: Ca2+ with ADPR; MHR1/2 site; no activation; reduced expression level
T1 construct: gene PTSG_05449; full length; N-terminal TwinStrepII-His8-eGFP tag (thrombin-cleaved for enzyme assays and nanodiscs); expressed in tsA201 cells; homotetramer, GDN detergent or nanodisc
T1 sequence (F2UB89 entry or part of it R275A): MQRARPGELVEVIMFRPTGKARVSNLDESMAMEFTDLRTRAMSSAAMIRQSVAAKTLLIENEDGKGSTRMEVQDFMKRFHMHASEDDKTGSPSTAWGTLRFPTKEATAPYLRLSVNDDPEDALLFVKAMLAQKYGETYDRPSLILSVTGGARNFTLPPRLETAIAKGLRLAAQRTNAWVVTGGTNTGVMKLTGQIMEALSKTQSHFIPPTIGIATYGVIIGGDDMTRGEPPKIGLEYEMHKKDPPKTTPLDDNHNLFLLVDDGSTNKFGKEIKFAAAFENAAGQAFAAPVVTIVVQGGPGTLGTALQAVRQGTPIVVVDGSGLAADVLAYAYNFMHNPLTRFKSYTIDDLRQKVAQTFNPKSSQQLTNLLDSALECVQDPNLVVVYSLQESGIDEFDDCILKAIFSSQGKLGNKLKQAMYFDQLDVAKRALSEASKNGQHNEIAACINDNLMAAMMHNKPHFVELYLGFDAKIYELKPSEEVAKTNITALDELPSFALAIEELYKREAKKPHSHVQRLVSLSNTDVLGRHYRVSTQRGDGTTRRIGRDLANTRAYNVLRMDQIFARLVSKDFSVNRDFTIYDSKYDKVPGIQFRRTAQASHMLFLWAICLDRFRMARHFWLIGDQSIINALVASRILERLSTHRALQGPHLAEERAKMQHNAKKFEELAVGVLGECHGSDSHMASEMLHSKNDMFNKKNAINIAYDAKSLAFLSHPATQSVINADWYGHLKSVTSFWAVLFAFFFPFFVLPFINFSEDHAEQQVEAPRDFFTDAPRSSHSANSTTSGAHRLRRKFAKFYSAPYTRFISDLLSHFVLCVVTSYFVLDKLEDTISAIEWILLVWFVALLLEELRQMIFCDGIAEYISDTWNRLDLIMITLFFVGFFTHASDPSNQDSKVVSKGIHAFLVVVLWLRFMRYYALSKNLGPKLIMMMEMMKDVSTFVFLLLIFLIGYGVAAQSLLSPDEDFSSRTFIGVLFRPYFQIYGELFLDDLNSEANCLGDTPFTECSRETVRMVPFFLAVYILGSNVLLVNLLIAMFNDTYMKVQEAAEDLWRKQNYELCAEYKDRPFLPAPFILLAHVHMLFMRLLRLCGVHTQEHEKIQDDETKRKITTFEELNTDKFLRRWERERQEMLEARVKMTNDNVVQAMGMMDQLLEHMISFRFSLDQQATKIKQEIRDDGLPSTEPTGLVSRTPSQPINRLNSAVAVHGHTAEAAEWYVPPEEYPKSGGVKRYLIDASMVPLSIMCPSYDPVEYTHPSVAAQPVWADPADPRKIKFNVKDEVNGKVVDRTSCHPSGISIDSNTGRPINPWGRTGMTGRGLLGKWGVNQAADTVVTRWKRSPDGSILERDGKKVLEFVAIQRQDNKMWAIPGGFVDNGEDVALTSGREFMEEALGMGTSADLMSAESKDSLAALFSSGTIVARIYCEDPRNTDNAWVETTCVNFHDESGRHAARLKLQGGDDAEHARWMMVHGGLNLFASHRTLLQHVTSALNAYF

[7] = target: T2, srTRPM2 (Salpingoeca rosetta, UniProt F2UB89); assay: HPLC fluorescence of etheno-AMP, Michaelis-Menten fit; type: biochemical; conditions: 10 mM MgCl2 final, TBS-GDN, 25 °C; all buckle helix residues mutated to alanine, positions not given
T2 construct: gene PTSG_05449; full length; N-terminal TwinStrepII-His8-eGFP tag (thrombin-cleaved for enzyme assays and nanodiscs); expressed in tsA201 cells; homotetramer, GDN detergent or nanodisc
T2 sequence (F2UB89 entry or part of it): as the sequence (F2UB89 entry or part of it R275A) above, with A275R counted along it

[8] = target: T3, srNUDT9-H (isolated domain) (Salpingoeca rosetta, UniProt F2UB89); assay: as above; type: biochemical; conditions: 10 mM MgCl2 final, TBS-GDN, 25 °C
T3 construct: gene PTSG_05449; TwinStrepII-His8-eGFP tag, TEV-cleaved; expressed in tsA201 cells; monomeric
T3 sequence (F2UB89 entry or part of it): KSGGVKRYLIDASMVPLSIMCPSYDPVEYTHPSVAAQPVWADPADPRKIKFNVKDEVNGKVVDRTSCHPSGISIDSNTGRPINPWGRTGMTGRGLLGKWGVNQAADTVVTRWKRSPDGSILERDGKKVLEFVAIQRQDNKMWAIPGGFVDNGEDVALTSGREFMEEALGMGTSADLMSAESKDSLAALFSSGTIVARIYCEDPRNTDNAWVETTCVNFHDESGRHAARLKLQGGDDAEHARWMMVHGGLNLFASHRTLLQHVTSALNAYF

[9] = target: T4, srTRPM2 (Salpingoeca rosetta, UniProt F2UB89, F268A); assay: inside-out patch clamp, tsA201 cells, +[…] mV; type: biochemical; conditions: Ca2+ with ADPR; MHR1/2 site; no activation
T4 construct: gene PTSG_05449; full length; N-terminal TwinStrepII-His8-eGFP tag (thrombin-cleaved for enzyme assays and nanodiscs); expressed in tsA201 cells; homotetramer, GDN detergent or nanodisc
T4 sequence (F2UB89 entry or part of it F268A): as the sequence (F2UB89 entry or part of it R275A) above, with F268A, A275R counted along it

[10] = target: T2, srTRPM2; assay: HPLC fluorescence of etheno-AMP, Michaelis-Menten fit; type: biochemical; conditions: 10 mM MgCl2 final, TBS-GDN, 25 °C; buckle helix truncated, borders not given

stoichiometry N [1]: 4
stoichiometry N [2]: 4
Molecule: srTRPM2–ΔNUDT9-H (from UniProt F2UB89 1-1214) (domain or fragment)

stoichiometry N [3]: 4
Molecule: srTRPM2–E1114A (natural protein)

stoichiometry N [4]: 4
stoichiometry N [5]: 4
Molecule: Salpingoeca rosetta TRPM2 chanzyme, wild type, full length (natural protein)

KM [10]: srTRPM2 lacking the buckle helix (ΔBH)
Molecule: Nc1ncnc2c1ncn2[C@@H]1O[C@H](COP(=O)(O)OP(=O)(O)OC[C@H]2OC(O)[C@H](O)[C@@H]2O)[C@@H](O)[C@H]1O (stereo partly shown) [ADPR]
inside-out patch clamp, tsA201 cells, +60 mV [6]: Replacement of either of these residues with alanine rendered srTRPM2 insensitive to ADPR
KM [7]: srTRPM2 with the buckle helix residues replaced by alanine (BH2A)
KM [8]: representing the rate of ADPR hydrolysis by the isolated srNUDT9-H domain
inside-out patch clamp, tsA201 cells, +60 mV [9]: Replacement of either of these residues with alanine rendered srTRPM2 insensitive to ADPR
